Test results as given in patent US9260507B2, “Peptide promoting cell adhesion and migration” (Symatese, priority 2009, dated 2016).

Key:
[1] = tested on: normal human keratinocytes; experiment: NHK wound closure in a confluent keratinocyte layer (time-lapse videomicroscopy); type: cell-based; settings: LG4/5 protein 10 μg/ml, peptide 20 μg/ml
Description: NHKs were seeded in 24-well plates and grown until confluence. The medium was removed and a wound was made in the cell layer using a pipette tip. After rinsing with PBS, the areas were incubated with KBM-2 culture medium at 37° C. in the absence or presence of LG4/5 protein (10 μg/ml) or the peptide KKLRIKSKEK (SEQ ID NO: 1) (20 μg/ml). The behaviour of cells around the wound was then immediately followed by time-lapse videomicroscopy with an image recorded every hour for 48 hours in a moist chamber containing 5% CO2. (A) Images recorded at the beginning of the experiment, at 24 h and 48 h show the total area of the wound covered by cells during the experiment and under each condition (the black lines represent the edges of the wound at the start of recording). Bar, […]. (B) The wounded areas (without cells) were measured at the start, at 24 h (grey bars) and 48 h (black bars) using the Adobe Photoshop CS3 Extended program (version 10.0) in the different conditions. The rate of closure of each wound was expressed as a percentage of the initial wound. […]
Videomicroscopy experiments were performed with a Zeiss Axiovert 100M microscope fitted with a CCD camera (1 image every 10 minutes or every hour). In the experiments of FIG. 11, we analysed the movements of 100 cells using Metaview software (Roper Scientific, Princeton Instruments, Evry, France).

[2] = tested on: HT1080 cells; experiment: Inhibition of cell adhesion by competition (HT1080 cells on LG4/5 and LN332 substrates); type: cell-based, Human; settings: competitor in solution: peptide 20 μg/ml, LG4/5 protein 10 μg/ml, anti-LG4/5 antibody 10 μg/ml applied to substrate
Description: The LG4/5 (white bars) and LN332 (grey bars) proteins (1 μg/well) were adsorbed in 96-well plates. (A) Effect of the polyclonal anti-LG4/5 antibody on cell adhesion to the LG4/5 and LN332 protein. After saturating the wells, a solution of anti-LG4/5 antibody (10 μg/ml) was applied for one hour before performing the adhesion test with HT1080 cells (6·10^4 cells/well). (B, C) Effect of the LG4/5 protein and the peptide KKLRIKSKEK (SEQ ID NO: 1) in solution on syndecan-1 dependent adhesion to the LG4/5 fragment. The HT1080 cells were detached from the dishes and put into the wells (6·10^4 cells/well) as they were or in the presence of the LG4/5 protein (10 μg/ml) or the peptide KKLRIKSKEK (SEQ ID NO: 1) (20 μg/ml) as indicated on the graph. (A, B, C) The plates were incubated at 37° C. for 1 hour. After washing, the adherent cells were fixed and cell adhesion was measured as described in the methodology section. Cell adhesion in the presence of antibodies or competitor proteins was shown as a percentage of the cell adhesion obtained on the same substrate without competitor.
96-well plates were coated with the amounts indicated of peptide KKLRIKSKEK (SEQ ID NO: 1) or laminin 332 by adsorption at +4° C. for 16 to 18 hours. As before, the wells were saturated with a solution of 1% PBS-BSA for one hour. […]

[3] = tested on: normal human keratinocytes; experiment: Cell viability test (XTT); settings: 100 to 1 μg/ml, medium renewed every two days (repeated twice)
Description: NHKs were seeded in 96-well plates at 10^4 cells per well. After 24 hours, the culture media were removed and replaced with KBM-2 medium containing the concentrations of peptide [sequence] (SEQ ID NO: 1) (upper curve) or LG4/5 protein (lower curve) shown. After 48 h of contact at 37° C. the media were removed and this step was repeated twice. After 48 h of contact at 37° C. the media were replaced by XTT reagent. The plates were then placed in an incubator at 37° C. and the absorption was read after 6 hours. Controls with neither peptide nor protein were made on the same plate.
The effect of the peptide on the cell viability of the normal human keratinocytes was analysed using a colorimetric assay (XTT Cell Proliferation Kit, Roche Diagnostics, Meylan, France). A control with the LG4/5 protein was carried out in parallel. The chemical reaction of the test is based on the production of NADPH in living cells reducing yellow tetrazolium XTT salts to orange formazan salts. Absorption at 490 nm is measured using an ELISA plate reader. […] In this case, cell viability was calculated from the formula: % viability=(Abs. cells with peptide/Abs. control cells)×100.

[4] = tested on: normal human fibroblasts; experiment: Cell adhesion test (crystal violet colorimetric), normal human fibroblasts; type: cell-based; settings: 5 μg peptide or 1 μg LG4/5 protein immobilised, FIG. 14B
Description: (A) Showing the binding of syndecan-1 to the peptide KKLRIKSKEK (SEQ ID NO: 1). A lysate of normal human fibroblasts and a lysate of normal human keratinocytes were prepared as described in the Materials and Methods section and 2 mg of each lysate were incubated with neutravidin beads not coated or coated with the biotinylated peptide KKLRIKSKEK (SEQ ID NO: 1). A positive control was performed with the keratinocyte lysate to compare the size and quantity of syndecan-1 in the 2 cell types. After washing, the material bound to the beads was digested with a mixture of heparitinase I and chondroitinase ABC to release the protein part of the syndecan-1 from the glycosaminoglycans. The samples were then analysed by SDS PAGE electrophoresis in an 8% acrylamide gel under non-reducing conditions and by immunoblotting with polyclonal anti-syndecan antibody H174. The position of molecular weight markers is shown on the left. (B, C) Cell adhesion of normal human fibroblasts to the peptide KKLRIKSKEK (SEQ ID NO: 1) and to the LG4/5 protein. In one case (B), 5 μg of peptide KKLRIKSKEK (SEQ ID NO: 1) and 1 μg of protein LG4/5 were immobilised on a 96-well plate and in the other (C), the peptide KKLRIKSKEK (SEQ ID NO: 1) was immobilised at the concentrations indicated in the abscissa. […] After washing, the adherent cells were fixed and cell adhesion was measured as described in the methodology section. […]

B1: LG4/5 protein: purified recombinant LG4/5 domain of the alpha3 chain of pre-LN332 (laminin 332) (protein)
chain: DTPVASPRSVKVWQDACSPLPKTQANHGALQFGDIPTSHLLFKLPQELLKPRSQFAVDMQTTSSRGLVFHTGTKNSFMALYLSKGRLVFALGTDGKKLRIKSKEKCNDGKWHTVVFGHDGEKGRLVVDGLRAREGSLPGNSTISIRAPVYLGSPPSGKPKSLPTNSFVGCLKNFQLDSKPLYTPSSSFGVSSCLGGPLEKGIYFSEEGGHVVLAHSVLLGPEFKLVFSIRPRSLTGILIHIGSQPGKHLCVYLEAGKVTASMDSGAGGTSTSVTPKQSLCDGQWHSVAVTIKQHILHLELDTDSSYTAGQIPFPPASTQEPLHLGGAPANLTTLRIPVWKSFFGCLRNIHVNHIPVPVTEALEVQGPVSLNGCPDQ
**Q.** For B1, which “Area of the wound covered by cells (wound closure)” value ([1]; 24 h) is on record?
**A.** Its value is 65%.

**Q.** And the “Area of the wound covered by cells (wound closure)” value ([1]; 48 h)?
**A.** Its value is 91%.

**Q.** What about the “Effect on HT1080 cell adhesion to the immobilised LG4/5 fragment” value ([2]; LG4/5 substrate 1 μg/well) of the same molecule?
**A.** Its value is “blocked adhesion to the immobilised LG4/5 fragment”.

**Q.** What about the “Effect on HT1080 cell adhesion to LN332” value ([2]; LN332 substrate 1 μg/well) of the same molecule?
**A.** The value was “without affecting adhesion to LN332”.

**Q.** And the “Cytotoxic effect on epidermal keratinocytes (percentage of viable cells vs controls)” value [3]?
**A.** Its value is “neither peptide […] (SEQ ID NO: 1) nor protein LG4/5 has any long-term cytotoxic effect”.

**Q.** What about the “Adhesion of human dermal fibroblasts to the immobilised substrate” value [4] of the same molecule?
**A.** Its value is “adhere”.
